This is an account of results in paper PMC4434771.

Test [1] concerns the target human neonatal Fc receptor (FcRn), heterodimer of alpha-FcRn and beta2 microglobulin (human) (UniProt P55899). Description: FcRn affinity chromatography.
Test [2] has the same target. Description: SPR.

Sequence of UniProt P55899 (P55899 24-365, chain 1 of 2): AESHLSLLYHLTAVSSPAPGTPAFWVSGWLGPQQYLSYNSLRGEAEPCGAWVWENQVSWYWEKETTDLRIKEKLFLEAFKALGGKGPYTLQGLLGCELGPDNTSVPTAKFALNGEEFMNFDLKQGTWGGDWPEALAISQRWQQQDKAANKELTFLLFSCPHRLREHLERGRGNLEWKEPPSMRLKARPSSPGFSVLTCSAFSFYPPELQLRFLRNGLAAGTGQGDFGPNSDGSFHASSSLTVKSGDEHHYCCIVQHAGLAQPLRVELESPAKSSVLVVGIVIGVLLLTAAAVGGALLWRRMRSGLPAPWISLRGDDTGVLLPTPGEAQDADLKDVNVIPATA
Sequence of UniProt P55899 (P61769 21-119, chain 2 of 2, further chain): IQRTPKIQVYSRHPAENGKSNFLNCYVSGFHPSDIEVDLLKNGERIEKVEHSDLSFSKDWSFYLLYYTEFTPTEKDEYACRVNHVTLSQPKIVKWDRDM

In test [1], “IdeS-cleaved Fc region of briakinumab (domain or fragment)” yielded a FcRn column retention time of 85.7 min.
Still for that read-out and setting: with “IdeS-cleaved Fc region of ustekinumab (domain or fragment)” the figure was 85.2 min.
Turning to briakinumab (antibody), in test [1], the FcRn column elution pH was 7.9 pH and the FcRn column retention time turned out to be 93.7 min.
With “mAb 1 (ustekinumab Fv + briakinumab constant domains) (antibody)”, the Rel. KD (KD normalised to the KD of ustekinumab) in test [2] was 1. In addition, the FcRn column retention time in test [1] was 84.3 min.
In test [1], “mAb 3 (ustekinumab HC + briakinumab LC) (from UniProt P01857 2-107) (antibody)” returned a FcRn column retention time of 92.4 min.
“mAb 5 (ustekinumab CDRs on briakinumab) (antibody)” yielded a Rel. KD (KD normalised to the KD of ustekinumab) in test [2] of 0.9. This substance also displayed a FcRn column retention time in test [1] of 85.1 min.
